Here are results for one molecule from paper PMC5730846 (2017).

Assay [1] has as its target T1, recombinant Hsp90α (human, UniProt P07900 1-732). Briefly: FP; AMPPNP.
The target in assay [2] is T1, recombinant Hsp90α. Briefly: FP; ADP.

B1: Tsc1-D-His6 labeled with Texas Red maleimide (domain or fragment)
chain: DGCSDSMVGHNEEASGHNGETKTPRPSSARGSSGSRGGGGSSSSSSELSTPEKPPHQRAGPFSSRWETTMGEASASIPTTVGSLPSSKSFLGMKARELFRNKSESQCDEDGMTSSLSESLKTELGKDLGVEAKIPLNLDGPHPSPPTPDSVGQLHIMDYNETHHEHS
modifications: Texas Red C2 maleimide label, 0.8 labels/Tsc1-D
The Kd is the concentration at which binding is half-saturated. For the molecule B1, the Kd in the assay with recombinant Hsp90α [1] is 240 nM; with recombinant Hsp90α [2] it was 810 nM.
